No end group written: not given here. modified Toyopearl AF‑Amino‑650M resin = not defined here
B1: HWRGWV (SEQ ID NO: 1) synthesized on modified Toyopearl AF-Amino-650M resin (density 0.11 meq/g) (peptide)
peptide: HWRGWVA-{modified Toyopearl AF‑Amino‑650M resin}
modifications: reading uncertain
B2: HWRGWV-Toyopearl resin (peptide HWRGWV synthesized directly on unmodified Toyopearl AF-Amino-650M resin, peptide density 0.15 meq/g, Creosalus) (peptide)
peptide: HWRGWV-{Toyopearl AF‑Amino‑650M resin}
modifications: also: coupled partly by amide, partly by ester bonds

What was measured:
[1] = target: Human polyclonal immunoglobulin G (IgG), lyophilized, Equitech-Bio, Inc. (human); assay: affinity chromatography of IgG from cMEM, yield = IgG eluted / IgG loaded; cycle 1, 0 washes with 1 M NaOH
[2] = target: Human polyclonal immunoglobulin G (IgG), lyophilized, Equitech-Bio, Inc. (human); assay: affinity chromatography of IgG from cMEM, yield = IgG eluted / IgG loaded; cycle 10, 9 washes with 1 M NaOH
[3] = target: Human polyclonal immunoglobulin G (IgG), lyophilized, Equitech-Bio, Inc. (human); assay: affinity chromatography of IgG from cMEM, yield = IgG eluted / IgG loaded; cycle 1, 0 washes with 0.1 M NaOH
[4] = target: Human polyclonal immunoglobulin G (IgG), lyophilized, Equitech-Bio, Inc. (human); assay: affinity chromatography of IgG from cMEM, yield = IgG eluted / IgG loaded; cycle 1, 0 washes with 0.5 M NaOH
[5] = target: Human polyclonal immunoglobulin G (IgG), lyophilized, Equitech-Bio, Inc. (human); assay: affinity chromatography of IgG from cMEM, yield = IgG eluted / IgG loaded; cycle 20, 19 washes with 1 M NaOH
[6] = target: Human polyclonal immunoglobulin G (IgG), lyophilized, Equitech-Bio, Inc. (human); assay: affinity chromatography of IgG from cMEM, yield = IgG eluted / IgG loaded; cycle 30, 29 washes with 1 M NaOH
[7] = target: Human polyclonal immunoglobulin G (IgG), lyophilized, Equitech-Bio, Inc. (human); assay: affinity chromatography of IgG from cMEM, yield = IgG eluted / IgG loaded; cycle 50, 49 washes with 1 M NaOH
[8] = target: Human polyclonal immunoglobulin G (IgG), lyophilized, Equitech-Bio, Inc. (human); assay: affinity chromatography of IgG from cMEM, yield = IgG eluted / IgG loaded; cycle 25, 24 washes with 0.1 M NaOH
[9] = target: Human polyclonal immunoglobulin G (IgG), lyophilized, Equitech-Bio, Inc. (human); assay: affinity chromatography of IgG from cMEM, yield = IgG eluted / IgG loaded; cycle 50, 49 washes with 0.1 M NaOH
[10] = target: Human polyclonal immunoglobulin G (IgG), lyophilized, Equitech-Bio, Inc. (human); assay: affinity chromatography of IgG from cMEM, yield = IgG eluted / IgG loaded; cycle 25, 24 washes with 0.5 M NaOH
[11] = target: Human polyclonal immunoglobulin G (IgG), lyophilized, Equitech-Bio, Inc. (human); assay: affinity chromatography of IgG from cMEM, yield = IgG eluted / IgG loaded; cycle 50, 49 washes with 0.5 M NaOH
[12] = target: Human polyclonal immunoglobulin G (IgG), lyophilized, Equitech-Bio, Inc. (human); assay: affinity chromatography of IgG from cMEM, yield = IgG eluted / IgG loaded; cycle 75, 74 washes with 0.5 M NaOH
[13] = target: Human polyclonal immunoglobulin G (IgG), lyophilized, Equitech-Bio, Inc. (human); assay: affinity chromatography of IgG from cMEM, yield = IgG eluted / IgG loaded; cycle 100, 99 washes with 0.1 M NaOH
[14] = target: Human polyclonal immunoglobulin G (IgG), lyophilized, Equitech-Bio, Inc. (human); assay: affinity chromatography of IgG from cMEM, yield = IgG eluted / IgG loaded; cycle 100, 99 washes with 0.5 M NaOH
[15] = target: Human polyclonal immunoglobulin G (IgG), lyophilized, Equitech-Bio, Inc. (human); assay: affinity chromatography of IgG from cMEM, yield = IgG eluted / IgG loaded; cycle 200, 199 washes with 0.1 M NaOH
[16] = target: Human polyclonal immunoglobulin G (IgG), lyophilized, Equitech-Bio, Inc. (human); assay: affinity chromatography, yield = IgG eluted / IgG loaded; cycle 4, after two 0.1 M NaOH washes
[17] = target: Human polyclonal immunoglobulin G (IgG), lyophilized, Equitech-Bio, Inc. (human); assay: affinity chromatography, yield = IgG eluted / IgG loaded; cycle 5, after three 0.1 M NaOH washes
[18] = target: Human polyclonal immunoglobulin G (IgG), lyophilized, Equitech-Bio, Inc. (human); assay: affinity chromatography, yield = IgG eluted / IgG loaded; cycle 3, after the first 0.1 M NaOH wash (ligand partly leached)
[19] = target: Human polyclonal immunoglobulin G (IgG), lyophilized, Equitech-Bio, Inc. (human); assay: affinity chromatography, yield = IgG eluted / IgG loaded; cycle 2, after phosphoric acid regeneration, before any NaOH wash
[20] = target: Human polyclonal immunoglobulin G (IgG), lyophilized, Equitech-Bio, Inc. (human); assay: affinity chromatography, IgG 10 mg/mL in cMEM loaded on 0.1 mL column, eluted with 0.2 M acetate pH 4; yield = IgG eluted / IgG loaded (Protein G HPLC); cycle 1, before any NaOH wash

| Binder | IgG yield [1] | IgG yield [2] | IgG yield [3] | IgG yield [4] | IgG yield [5] | IgG yield [6] | IgG yield [7] | IgG yield [8] | IgG yield [9] | IgG yield [10] | IgG yield [11] | IgG yield [12] | IgG yield [13] | IgG yield [14] | IgG yield [15] | IgG yield [16] | IgG yield [17] | IgG yield [18] | IgG yield [19] | IgG yield [20] |
| --- | --- | --- | --- | --- | --- | --- | --- | --- | --- | --- | --- | --- | --- | --- | --- | --- | --- | --- | --- | --- |
| B1 | 88% | 84% | 91% | 89% | 82% | 79% | 76% | 90% | 88% | 87% | 85% | 82% | 87% | 80% | 85% | – | – | – | – | – |
| B2 | – | – | – | – | – | – | – | – | – | – | – | – | – | – | – | 21% | 21% | 23% | 85% | 85% |

— patent publication US20130165539A1
